B1: library; numbered along this chain (parent)
chain: MEVVDPQQLGMFTEGELMSVGMDTFIHRIDSTEVIYQPRRKRAKLIGKYLMGDLLGEGSYGKVKEVLDSETLCRRAVKILKKKKLRRIPNGEANVKKEIQLLRRLRHKNVIQLVDVLYNEEKQKMYMVMEYCVCGMQEMLDSVPEKRFPVCQAHGYFCQLIDGLEYLHSQGIVHKDIKPGNLLLTTGGTLKISDLGVAEALHPFAADDTCRTSQGSPAFQPPEIANGLDTFSGFKVDIWSAGVTLYNITTGLYPFEGDNIYKLFENIGKGSYAIPGDCGPPLSDLLKGMLEYEPAKRFSIRQIRQHSWFRKKHPPAEAPVPIPPSPDTKDRWRSMTVVPYLEDLHGADEDEDLFDIEDDIIYTQDFTVPGQVPEEEASHNGQRRGLPKAVCMNGTEAAQLSTKSRAEGRAPNPARKACSASSKIRRLSACKQQ

Variants of: B1
Assay: STK11 functional score (HeLa growth suppression), rescaled enrichment; synonymous median = 1, nonsense median = 0 (normalised score)
Settings: with HeLa; variant type: missense
In short: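 The values are functional scores: wild-type-corrected log ratios of post- versus pre-selection abundance, rescaled to synonymous and nonsense medians, merged over codons and replicate transfections, and carrying bootstrapped error. They derive from codon-randomised (POPCode), codon-optimised STK11 libraries that Bxb1 integrated at an AAVS1 landing pad in HeLa, with three transfections for each of three regions. Sequencing of tiled gDNA amplicons ran on NextSeq, at ~2 million reads per tile.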

STK11 functional score of substitutions, site by site:
G215: T 1.19, C 1.06, I 0.938, D 0.255, A 1.15, W 0.29, M 0.509, H 0.951, Y 1.08, R 0.426, V 0.788, N 1.43, L 1.04, Q 0.0889, S 1.11
R211: Y 1.53, S 1.32, P 1.19, M 1.42, V 1.35, T 1.22
T212: L 1.06, P 0.926, A 1.41, D 1.48, E 1.65, S 0.909, M 0.927, V 0.545, H 1.59, G 1.3, R 1.48, N 0.481, W 1.41, C 1.32, I 1.13, Y 1.38, Q 1.65
A225: R 1.07, G 1.05, L 1.52, P 1.22, Y 0.922, V 1.28, S 1.06, T 1.65, I 1.42
Q220: P 0.0844, L 0.714, T 1.67, E 0.51, H 0.87, D 0.747, G 0.849, S 1.21, R 0.808, C 1.18, W 1.46, V 0.924, Y 1.33, A 1.3, K 0.583, M 1.15
P217: S 0.334, E 0.536, C 0.451, H 0.332, Y 1.45, F 1.45, A 1.25, L 0.248, V 0.177, W 1.66, G 1.53, R 0.3
G233: T 1.7, F 1.46, S 1.44, V 0.47, R 0.173, C 1.43, W 1.16, A 1.3, Q 1.62, Y 1.04, L 1.57, N 1.19, D 1.56
T230: R 1.39, P 1.1, S 0.93, L 0.829, V 1.5, N 1.2, M 0.971, K 1.29, Q 1.39, A 0.88, W 1.17, H 1.46, G 0.522, F 0.961, E 1.65, C 1.19
S213: P 1.32, A 1.38, N 1.65, V 1.02, T 1.05, L 1.17, H 1.68, W 1.14, M 1.15, C 0.758, Y 1.34, F 1.35, I 0.902, R 1.04, G 1.37
F231: N 1.69, T 1.64, D 1.56, P 0.959, H 0.765, E 1.24, L 0.842, C 1.33, V 0.867, R 1.26, I 1.62, M -0.0118, A 1.61, G 1.17, S 0.515, W 0.409, Y 0.865
E223: K 0.308, D 0.948, T 0.188, L 0.529, C 1.03, I 0.17, R 0.921, Q 0.735, H 1.18, W 0.142, G 0.169, S 0.551, V 0.469, Y 1
P222: E 0.0466, D -0.103, L 0.281, W 0.686, R 0.93, F 0.44, Q 0.712, A 0.83, S 1.15, I 1.13, G 0.489, M 0.595, H 0.314, N 1.61, T 0.499, V 0.826, C 0.773
P221: R 0.116, L 0.159, I 0.337, C 0.759, M 0.39, V 1.01, S 1.07, Y -0.0979, F -0.0165, G 1.03, D 0.00575
D229: V 0.388, Y 0.508, M 1.28, F 0.981, E 1.03, S 1.01, L 1.05, H 0.539, K 0.652, R 0.991, T 1.67, A 0.987, P 1.68, Q 1.49, G 1.03, W 0.347
I224: W 1.3, P 0.889, Q 0.698, M 1.11, N 1.47, F 1.09, L 1.28, K 1.19, T 0.252, V 0.835, R 1.04, S 1.31, E 1.03, H 1.46
G227: D 1.13, Q 1.26, T 1.67, S 1.49, P 1.1, F 1.14, R 0.588, C 0.981, W 1.29, E 0.563, Y 1.46, L 0.694, V 0.625, M 1.69, A 0.273
Q214: G 1.57, H 1.39, A 1.18, V 0.919, D 1.33, P 0.598, R 1.45, M 1.66, I 1.05, E 1.36, L 1.05, W 0.779, Y 1.19, N 1.27, C 0.896, F 1.04, S 0.787, T 1.64
F219: H 1.18, V 0.825, Y 1.29, G 0.713, L 1.11, C 0.557, I 1.31, P 0.116, A 0.528, Q 1.57, K -0.214, R 0.1, S 0.778, W 1.49
N226: L 1.08, A 1.61, W 1.65, R 1.51, Q 1.45, E 0.0384, C 1.29, T 1.26, V 0.778, G 1.24, I 0.495, H 0.561, M 0.459, K 0.86, S 0.759, P 0.609
S232: P 0.971, C 1.17, I 1.4, E 1.36, R 1.39, K 1.67, N 1.28, G 0.97, D 1.14, Q 1.03, A 1.04, L 0.996, W 0.692, H 1.3, M 0.515, Y 0.917, V 0.841
S216: G 0.926, F -0.0894, V 0.614, D 0.167, L 0.0797, Y -0.11, R -0.166, P 0.894, M 0.227, W -0.0568, N 0.349, A 0.851, K -0.0726, E -0.148, T 0.847, I 0.119
F234: C 1.05, E 1.59, D 1.18, G 1.33, A 1.35, I 1.67
L228: M 0.601, Y 1.25, R 1.68, A 1.66, F 1.34
A218: G 0.816, S 1.09, F 1.26, L 0.905, W 0.671, D 0.324, N 1.35, E 1.23, V 1.07, Q 1.25, P 0.529, K 1.28, I 0.926, R 0.926, Y 1.34, T 0.88, M 1.35, C 0.947, H 0.853

— the supplement of paper PMC12338614
